Test results: publication PMC11751051 (Frontiers in Molecular Biosciences, 2025)

Legend:
GFP-OhyA = target: T1, GFP-OhyA (Staphylococcus aureus, UniProt Q2G1P3, M1A); test: biochemical
T1 construct: gene SAOUHSC_00061

[1] = target: GFP-OhyA (green fluorescent protein-oleate hydratase chimeric protein) (Staphylococcus aureus); test: SEC-MALS; Superose 6 Increase 10/300 GL; 20 mM Tris, 200 mM NaCl, pH 7.6; 100 uL of GFP-OhyA (2 mg/mL) injected at 0.5 mL/min, 25 °C

Compound CCCCCCCC/C=C\CCCCCCCC(=O)OC[C@H](COP(=O)(O)OCC(O)CO)OC(=O)CCCCCCC/C=C\CCCCCCCC (stereo partly drawn) [DOPG] has a Kd (GFP-OhyA) of 79.9 nM.
With “GFP-OhyA (green fluorescent protein-oleate hydratase chimeric protein) (enzyme)” the percent dimer [1] was 80.6% and the stoichiometry N [1] was 2.
